Molecular target: zo2_human TJP2 (UniProt Q9UDY2)
Sequence (Q9UDY2 whole entry): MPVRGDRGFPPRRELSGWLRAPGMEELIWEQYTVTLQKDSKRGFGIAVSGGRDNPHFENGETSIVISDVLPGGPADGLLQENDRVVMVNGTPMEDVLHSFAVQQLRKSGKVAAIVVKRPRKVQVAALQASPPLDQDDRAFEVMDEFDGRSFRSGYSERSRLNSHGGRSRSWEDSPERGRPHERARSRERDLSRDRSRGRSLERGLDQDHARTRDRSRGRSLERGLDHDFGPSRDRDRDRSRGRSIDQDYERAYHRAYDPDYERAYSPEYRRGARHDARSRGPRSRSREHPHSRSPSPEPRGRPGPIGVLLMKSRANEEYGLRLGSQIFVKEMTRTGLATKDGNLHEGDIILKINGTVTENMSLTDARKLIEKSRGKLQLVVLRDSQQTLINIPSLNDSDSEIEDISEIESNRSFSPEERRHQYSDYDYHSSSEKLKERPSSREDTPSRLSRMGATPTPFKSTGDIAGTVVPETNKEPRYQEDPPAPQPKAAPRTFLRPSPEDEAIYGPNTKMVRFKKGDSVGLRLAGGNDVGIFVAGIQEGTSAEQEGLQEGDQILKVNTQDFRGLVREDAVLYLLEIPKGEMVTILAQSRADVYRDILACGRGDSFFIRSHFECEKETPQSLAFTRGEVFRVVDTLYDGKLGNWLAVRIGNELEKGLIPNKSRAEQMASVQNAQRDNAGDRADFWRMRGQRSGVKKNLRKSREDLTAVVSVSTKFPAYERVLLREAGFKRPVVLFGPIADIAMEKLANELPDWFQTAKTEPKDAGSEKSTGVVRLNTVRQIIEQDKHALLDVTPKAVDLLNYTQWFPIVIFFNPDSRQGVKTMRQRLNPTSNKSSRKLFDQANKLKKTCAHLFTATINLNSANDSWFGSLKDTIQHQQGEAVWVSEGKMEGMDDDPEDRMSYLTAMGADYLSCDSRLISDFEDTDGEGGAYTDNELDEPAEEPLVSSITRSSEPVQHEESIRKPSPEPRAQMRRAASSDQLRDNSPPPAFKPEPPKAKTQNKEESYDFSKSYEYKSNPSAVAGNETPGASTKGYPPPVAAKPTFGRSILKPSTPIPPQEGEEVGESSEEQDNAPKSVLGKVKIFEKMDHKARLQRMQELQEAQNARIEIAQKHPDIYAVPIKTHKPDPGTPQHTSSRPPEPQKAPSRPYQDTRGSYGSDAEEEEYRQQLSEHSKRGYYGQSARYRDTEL

Chain of Protein scribble homolog (Homo sapiens), Q14160-1 P305L (Q14160 other isoform, or with tags, fused parts or gaps P305L): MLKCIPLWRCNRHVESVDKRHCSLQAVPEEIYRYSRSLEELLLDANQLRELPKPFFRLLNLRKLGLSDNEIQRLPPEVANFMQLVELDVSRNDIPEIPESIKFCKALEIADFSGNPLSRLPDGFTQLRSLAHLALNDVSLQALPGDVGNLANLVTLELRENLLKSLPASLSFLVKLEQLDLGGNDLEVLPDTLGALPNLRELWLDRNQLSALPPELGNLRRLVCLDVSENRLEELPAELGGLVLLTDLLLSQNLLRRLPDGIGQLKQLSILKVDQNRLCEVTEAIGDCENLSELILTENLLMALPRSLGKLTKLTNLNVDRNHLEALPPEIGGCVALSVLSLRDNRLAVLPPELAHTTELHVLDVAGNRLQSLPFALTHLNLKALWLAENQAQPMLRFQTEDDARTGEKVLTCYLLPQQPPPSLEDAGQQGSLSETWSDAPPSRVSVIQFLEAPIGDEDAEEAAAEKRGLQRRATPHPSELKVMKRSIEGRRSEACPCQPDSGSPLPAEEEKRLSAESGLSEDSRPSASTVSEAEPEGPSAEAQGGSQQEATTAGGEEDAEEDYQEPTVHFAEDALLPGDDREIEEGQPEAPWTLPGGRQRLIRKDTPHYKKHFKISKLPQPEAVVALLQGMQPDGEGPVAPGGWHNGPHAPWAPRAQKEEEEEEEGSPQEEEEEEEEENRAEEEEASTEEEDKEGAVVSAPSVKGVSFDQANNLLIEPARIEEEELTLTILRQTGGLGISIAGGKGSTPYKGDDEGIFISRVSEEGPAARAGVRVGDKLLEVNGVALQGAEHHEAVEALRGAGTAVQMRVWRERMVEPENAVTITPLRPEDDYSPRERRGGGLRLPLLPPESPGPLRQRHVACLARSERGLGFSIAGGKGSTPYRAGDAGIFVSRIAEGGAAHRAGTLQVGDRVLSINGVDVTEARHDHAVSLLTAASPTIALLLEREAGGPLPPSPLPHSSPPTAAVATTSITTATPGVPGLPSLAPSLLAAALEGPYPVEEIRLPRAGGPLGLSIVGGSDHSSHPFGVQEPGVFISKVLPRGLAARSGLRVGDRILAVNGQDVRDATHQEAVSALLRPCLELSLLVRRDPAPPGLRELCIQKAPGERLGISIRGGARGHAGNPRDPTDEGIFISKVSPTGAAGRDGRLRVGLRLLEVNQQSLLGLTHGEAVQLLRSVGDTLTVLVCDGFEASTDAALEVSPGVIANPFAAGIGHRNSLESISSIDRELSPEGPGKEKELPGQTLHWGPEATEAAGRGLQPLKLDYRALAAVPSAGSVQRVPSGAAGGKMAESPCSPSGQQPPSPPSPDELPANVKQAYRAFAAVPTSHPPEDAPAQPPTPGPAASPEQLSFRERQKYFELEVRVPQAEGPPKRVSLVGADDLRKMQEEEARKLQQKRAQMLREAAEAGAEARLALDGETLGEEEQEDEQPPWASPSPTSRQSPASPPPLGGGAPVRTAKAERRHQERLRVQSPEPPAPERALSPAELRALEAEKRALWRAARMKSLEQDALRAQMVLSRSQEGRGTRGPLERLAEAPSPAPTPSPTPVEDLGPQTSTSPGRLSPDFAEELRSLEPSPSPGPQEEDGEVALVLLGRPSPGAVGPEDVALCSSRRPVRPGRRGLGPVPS

Protein scribble homolog (Homo sapiens), Q14160-1 P305L
effect of a mutation on the interaction: decreasing interaction

Source: IntAct's records for PubMed 15975580
